Data reported in the nanobody polyreactivity screen of Harvey et al. (2022).

experiment: yeast display, Sf9 membrane polyspecificity reagent, FACS + sequencing; frameworks hold sequencing errors
Outline: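 Nanobodies came from a synthetic yeast display library in Saccharomyces cerevisiae BJ5465, induced with galactose for 36–48 hours and stained for 1 hour at 4 °C with 10% biotinylated, detergent-solubilized Sf9 membrane reagent. Cells were enriched on streptavidin microbeads and then FACS-sorted, with low and high (top ~1%) gates set on anti-HA fluorescence for expression and streptavidin fluorescence for reagent binding. Each polyreactivity label reflects the gate a clone came from. Genes were amplified by colony PCR, sequenced by MiSeq 2 × 250 and filtered by CDR length.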

| Sequence | polyreactivity (PSR sort gate) |
| --- | --- |
| QVQLVESGGGLVQAGGSLRLSCAASGNIFRSYMGWYRQAPGKERELVASISRRGGSTYYADSVKGRFTISRDNAKNTVYLQMNSLKPEDTAVYYCARRWSWVNGVFGYYWGQGTQVTVSS | high polyreactivity |
| QVQLVESGGGLVQAGGSLRLSCAASGNIFSANAMVWDRQAPGKEREFVAAISSTGGSTYYADSVKGRFTISRDNAKNTVYLQMNSLIPEDTAVYYCAAYIRRYLHYDYWGQGSQVTVSS | high polyreactivity |
| QVQLVESGGGLVQAGGSLRLSCAASGNIFSAYAMGWYRQAPGTERELVATITSGGITYYADSVKGRFTISRDNAKNSVYLQKNSLKPEDTAVYYCNADHHGQAEYGYWGHGTQVTVSS | low polyreactivity |
| QVQLVESGGGLVQAGGSLRLSCAASGNIFSAYTMGWYRQAPGKERELVAAITGGTSTHYADSVKGRFTISRDNAKNTVYLQMNSLKPEDTAVYYCAADQGRYGIIGWDDYWGQGTQVTVSS | low polyreactivity |
| QVQLVESGGGLVQAGGSLRLSCAASGNIFSDYTMGWYRQAPGEERELVAAISGEGGTTYNADSVKGRFTISRDNAKNTVYLQMNRLKPEDPAVYYCAADGYYHAYDQFFIVYYEYDYWGQGTQVTVSS | low polyreactivity |
| QVQLVESGGGLVQAGGSLRLSCAASGNIFSGNAMGWYRQAPGKERELVAAISWSGGSTYYADSVKGRFTISRDNAKNTVYLQMNSLKPEDTAVYYCNKDLYADGQYNYDYWGQGTQVTVSS | low polyreactivity |
| QVQLVESGGGLVQAGGSLRLSCAASGNIFSIYAMGWYRQAPGKERELVARITRVGSTYADSVKGRFTISRDNAKNTVYLQMNSLNPEDTAVYYCAADKNTPHASLDDFNDYDYWGQGTQVTVSS | high polyreactivity |
| QVQLVESGGGLVQAGGSLRLSCAASGNIFSKYAMGWYRQAPGKERELVAAISRSGGRTYYADSVKGRFTISRDNAKNTVYLQMNSLNPEDTAFYYCNKAQRHYPYDYWGQGTQVTVSS | high polyreactivity |
| QVQLVESGGGLVQAGGSLRLSCAASGNIFSYYAIGSYRHAPRKEREFVAANDWNGGTTYYADSVKGRFTISRDNAKNTVYLQMNSLKPEDTAVYYCAAEYGTWYIPEGEYWGQGTQVTVSS | high polyreactivity |
| QVQLVESGGGLVQAGGSLRLSCAASGNIFTIYAMGWYRQAPGKERELVAAIDSDGTTYYADSVKGRFTISRYNAKNTVYLQMNSLKPEDTAVYYCAAGGRSVRYNYWGQGTQVTVSS | high polyreactivity |
| QVQLVESGGGLVQAGGSLRLSCAASGNIFTKYAMGWYRPAPGKERELVAAITWSGGSTYYADSVKGRFTISRDNAKNTVYLRMNSLKPEDTAVYYCATAHGFRRDKPYDYWGQGTQVTVSS | high polyreactivity |
| QVQLVESGGGLVQAGGSLRLSCAASGNIFTYYAMGWYRQAPGKERELVAAIRWRSGSTYYADSVKGRFTISRDNAKNTVYLQMNSLKPEDTAVYYCAADGTPYEYDYWGHGTQVTVSS | low polyreactivity |
| QVQLVESGGGLVQAGGSLRLSCAASGNIFTYYVMGWYRQAPGKQRELVAAISRRGGSTYYADSVKGRFIISRDNAKHTVYLQMNSLKPEDTAVYYCAKKYPRDMDYWGQGTQVTVSS | high polyreactivity |
| QVQLVESGGGLVQAGGSLRLSCAASGNIFVGNDMGWYRQAPGKERELVAAISSGDTTSYADSVKGRFTISRDNAKNTVYLQMNSLKPEDTAVYYCNTDAPYLLWFTNRYDYWGQGTQVTVSS | low polyreactivity |
| QVQLVESGGGLVQAGGSLRLSCAASGNIFVPNAMGWYRQAPGKERELVAAIRRGGSTNYADSVKGRFTISRDNAKNTVYLQMNSLKPEDTAVYYCAAYYTYLYHYGTFKIYNYWGQGTQVTVSS | low polyreactivity |
| QVQLVESGGGLVQAGGSLRLSCAASGNIFWLNAMGWYRQAPGKEREFVADITWSTGSTYYADSVKGRFTISRDNAKNTVYLQMNSLKPEDTAVYYCAADDGYFNYLILRFKYLYDYWGQGTQVTVSS | low polyreactivity |
| QVQLVESGGGLVQAGGSLRLSCAASGNIFWWNAMGWYREATRKERELVAAITSDSTTYYADSVKGRFTISRDNAKNTVYLQMKSLKPEDTAVYYCAAYSYGGQGVDYGYWGQGTQVTVSS | low polyreactivity |
| QVQLVESGGGLVQAGGSLRLSCAASGNIFYANDMGWYIQAPGKERELVAAITGSGGSTYYADSVKGRFTISRDNAKNTVYLQMDSLKPEDTAVYYCATPYDIQWASESHDSWGQGTQVTVSS | low polyreactivity |
| QVQLVESGGGLVQAGGSLRLSCAASGNIFYAYDMGWYRQAPGKERELVAAITNGDSTDYADSVKGRFTISRDNAKNTVYLQMNSLKPEDTAVYYCATDIHSVHNNRDKHDYDYWGQGTQVTVSS | low polyreactivity |
| QVQLVESGGGLVQAGGSLRLSCAASGNIFYINTMGWYRQEPGKERELVDAIDASDGSTYYADSVKGRFTISRDNAKNTVYLQMNSLKPEDTAVYYFASRRGYDSVYYFYTLWYYYWGQGTQVTVSS | low polyreactivity |

| Sequence | polyreactivity (PSR sort gate) |
| --- | --- |
| QVQLVESGGGLVQAGGSLRLSCAASGNIFYLYAMGCYRQAPGKEREFSTSYADSVKGRFTISRDNAKNTVYLQMNSLKPEDTAVYYCAAYKSRGPYYYLFDYWGQGTQVTVSS | low polyreactivity |
| QVQLVESGGGLVQAGGSLRLSCAASGNIFYRNGMGWYRQAPGKEREFVAAISRRGGSTYYADSVKGRFTISRDNAKNTVYLQMNSLKPEDTAVYYCATRYWPTNKGEYWGQGTQVTVSS | high polyreactivity |
| QVQLVESGGGLVQAGGSLRLSCAASGNIFYSYAMGWYRQAPGKERELVAAISSSGGRTYYADSVKGRFTISRDNAKNTVYLQMNSLKPEDTAVYYCNAYVQVLRYVFGRPTVYPYDYWGQGTQVTVSS | high polyreactivity |
| QVQLVESGGGLVQAGGSLRLSCAASGNIFYTNAMGWYRQAPGKERELVAAISRSGGRTYYADSVKGRFTISRDNAKNTVYLQMNSLKPEDTAVYYCAKQLYSPYKQRGYRLSPYEYWGQGTQVTVSS | low polyreactivity |
| QVQLVESGGGLVQAGGSLRLSCAASGNIFYVYLMGWYRQAPGKERELVASITSGASTYYADSVKGRFTISRDNAKNTVYLQMNSLKPEDTAVYYCAAEALGVAGDYSTLYIYDYWGQGTQVTVSS | low polyreactivity |
| QVQLVESGGGLVQAGGSLRLSCAASGNIFYYYAMGWYRQAPGKERELVADITSGGDTDYADSVKGRFTISRDNAKNTVYLQMNSLKPEDTAVYYCNAEYYFHVTYDYWGQGTQVTVSS | low polyreactivity |
| QVQLVESGGGLVQAGGSLRLSCAASGNIIDFYAMGWYRQAPGKERELVAAITSGGSTNFADSVKGRFTISRDNAKNTVYLQMNSLKPEDTAVYYCAARQWFSHRRWGGSRYDYWGQGTQVTVSS | high polyreactivity |
| QVQLVESGGGLVQAGGSLRLSCAASGNILIGNVMGWYRPAPGKERELVAAITSGGDTYYADSVKGRFTITRDNAKNTVYLQMNSLKPEDTAVYYCAADRPGQPKYEYWGQGTQVTVSS | low polyreactivity |
| QVQLVESGGGLVQAGGSLRLSCAASGNISPGNVMGWYRQAPGKERELVAAITISGGSTYYADSVKGRFTISRDNAKNTVYLQMNSLKPEDTAVYYCAKRTKFYYTGSGYGKYYYWGQGTQVTVSS | high polyreactivity |
| QVQLVESGGGLVQAGGSLRLSCAASGNLFDYYAMGWYRQAPGKERELVAAISTGTSTYADSVKGRFTISRDNAKNTVYLQMNSLKPEDTAVYYCAADVGIRPLNYHPYNYWGQGTQVTVSS | low polyreactivity |
| QVQLVESGGGLVQAGGSLRLSCAASGNLFYGYAMGWYRQAPGKERELVAAISGSSTYYADSVKGRFTISRDNAKYTVYLQMNSLKPEDTAVYYCAVPQYLYLQAGHGFRYYYWGQGTQVTVSS | high polyreactivity |
| QVQLVESGGGLVQAGGSLRLSCAASGNNFVYNPMGWYRPAPGKERELVAAIDSGGSTNYADSVKGRFTISRDNAKNTVYLQMNSLKPDDTAVYYCAADYFSTYRTIYYYWGQGTQVTVSS | low polyreactivity |
| QVQLVESGGGLVQAGGSLRLSCAASGNNFWWNDMGWYRHAPGKERELVAAISWRGSSTYYADSVKGRFTISRDNAKYTVYLQMNSLKPEDSAVYYCAKPDRTCWLDGDYWGQGTQVTVSS | low polyreactivity |
| QVQLVESGGGLVQAGGSLRLSCAASGNNFYNNAMGWYRQAPGKERELVATISRRGGRTYYADSVKGRFTISRDNAKNTVYLQMNSLKPEDTSVYYCNARFHGDYDYWGQGTQVTVSS | high polyreactivity |
| QVQLVESGGGLVQAGGSLRLSCAASGNNFYVYAMGWYRQATGKERELVAAIRWSGGSTYYADSVKGRFTISRDNGKNTVYLQMNSLKPEDTAVYYCAADYYLYEYEYWGQGTQVTVSS | high polyreactivity |
| QVQLVESGGGLVQAGGSLRLSCAASGNPFTWYTMGWYRPAPGKERDLVAVSTSDGSKYYADSVKGRFTISRDNAKNTVYLQMNSLKPEDTAVYYCNAGGGTNYGSGYWYGYYYWGQGTQVTVSS | low polyreactivity |
| QVQLVESGGGLVQAGGSLRLSCAASGNSFPYYDMGWYRQAPGKERELVAAITSSASGTYYADSVKGRFTISRDNAKNTVYLQMNSLKPEDNAVYYCAAGVFFFTFDYWGQGTQVTVSS | low polyreactivity |
| QVQLVESGGGLVQAGGSLRLSCAASGNTDVGYAMGWYRQAPGKETEFVAAISSRTGRTYYADTVKGRFTISRDNAKNTVFLQMISLKPEDTAVYYCAAVRGAPRYRYDYWGQGTQVTVSS | high polyreactivity |
| QVQLVESGGGLVQAGGSLRLSCAASGNTFAENAMGWYRQAPGKERELVDAISNGGTTNYADSVKGRFTISRDNAKNTVYLQMNSLKPEDTAVYYCNAKFGISQPGHSGLLKMDYWGQGTQVTVSS | low polyreactivity |
| QVQLVESGGGLVQAGGSLRLSCAASGNTFAQNTMGWYRQAPGKEREFVAGITFSGTGTYYADSVKGRFTISRDNAKNTVYLQMNSLKPEDTAVYYCAADTPTPGLFYWFYPHRGYWGQGTQVTVSS | low polyreactivity |
